Data published in paper PMC8816346 (Science Advances, 2022).

Biological target: TOPBP1, purified recombinant (human, UniProt Q92547 1-1522)
Test: pull-down

Sequence of TOPBP1, purified recombinant (Q92547 whole entry): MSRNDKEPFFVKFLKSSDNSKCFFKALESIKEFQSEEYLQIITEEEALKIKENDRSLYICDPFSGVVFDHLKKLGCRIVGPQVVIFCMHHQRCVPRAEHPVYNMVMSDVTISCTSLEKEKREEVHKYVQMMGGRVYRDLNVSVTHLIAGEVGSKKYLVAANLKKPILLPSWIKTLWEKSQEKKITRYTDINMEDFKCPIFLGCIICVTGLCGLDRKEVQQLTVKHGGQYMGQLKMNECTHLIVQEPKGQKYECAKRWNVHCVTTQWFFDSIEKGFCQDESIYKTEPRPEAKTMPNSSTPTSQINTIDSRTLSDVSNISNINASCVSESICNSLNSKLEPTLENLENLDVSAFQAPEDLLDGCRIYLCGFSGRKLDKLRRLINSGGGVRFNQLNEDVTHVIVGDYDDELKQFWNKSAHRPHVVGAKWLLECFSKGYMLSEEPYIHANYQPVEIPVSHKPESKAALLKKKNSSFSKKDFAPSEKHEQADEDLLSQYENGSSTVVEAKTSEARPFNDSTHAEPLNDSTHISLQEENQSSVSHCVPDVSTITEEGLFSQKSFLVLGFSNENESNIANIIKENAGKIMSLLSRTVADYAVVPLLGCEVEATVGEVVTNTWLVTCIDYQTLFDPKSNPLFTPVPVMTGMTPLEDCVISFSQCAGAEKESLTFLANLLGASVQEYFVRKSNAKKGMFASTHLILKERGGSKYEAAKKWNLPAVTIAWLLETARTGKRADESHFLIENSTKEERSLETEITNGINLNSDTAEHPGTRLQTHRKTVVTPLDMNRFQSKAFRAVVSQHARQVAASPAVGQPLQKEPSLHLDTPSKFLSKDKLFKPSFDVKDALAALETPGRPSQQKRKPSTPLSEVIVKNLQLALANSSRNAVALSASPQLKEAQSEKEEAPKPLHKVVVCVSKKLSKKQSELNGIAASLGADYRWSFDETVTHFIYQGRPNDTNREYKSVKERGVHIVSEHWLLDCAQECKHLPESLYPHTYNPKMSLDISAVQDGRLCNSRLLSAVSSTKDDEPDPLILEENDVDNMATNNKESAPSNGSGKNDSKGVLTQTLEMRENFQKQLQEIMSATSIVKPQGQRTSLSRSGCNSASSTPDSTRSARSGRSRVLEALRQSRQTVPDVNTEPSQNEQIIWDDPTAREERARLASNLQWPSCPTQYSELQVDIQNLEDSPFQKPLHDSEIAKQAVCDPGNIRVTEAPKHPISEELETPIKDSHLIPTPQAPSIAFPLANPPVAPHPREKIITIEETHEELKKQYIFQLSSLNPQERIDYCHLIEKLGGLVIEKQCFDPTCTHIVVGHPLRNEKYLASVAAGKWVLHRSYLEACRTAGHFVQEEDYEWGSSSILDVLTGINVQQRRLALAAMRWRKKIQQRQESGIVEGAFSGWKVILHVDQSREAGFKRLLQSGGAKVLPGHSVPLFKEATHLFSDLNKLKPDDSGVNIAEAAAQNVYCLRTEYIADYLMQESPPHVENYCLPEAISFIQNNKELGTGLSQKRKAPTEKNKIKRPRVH

binding result: binds
B1: BLM^λ (BLM^P dephosphorylated with λ-phosphatase) (natural protein)
chain: not shown
